Reference: the supplement of paper PMC9876800

Tested on: peptide library, one residue held at a place counted from the S/T acceptor
Experiment: relative phosphorylation of the sub-library (ratio to the mean residue at this position); higher = residue favoured
Details: human
Summary of the method: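 Purified recombinant kinases were reacted in 384-well plates with biotinylated degenerate peptide sub-libraries, each having one residue fixed at one position around a central Ser/Thr. The reaction mix contained 50 μM peptide plus 50 μM ATP spiked with γ-32P-ATP and ran for 90 min under kinase-specific conditions. Relative sub-library phosphorylation, taken from densitometry of phosphorimaged streptavidin membrane spots, is a ratio to the mean residue at that position.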

Sequence of PRKX, construct: Full length (P51817 whole entry, looked up): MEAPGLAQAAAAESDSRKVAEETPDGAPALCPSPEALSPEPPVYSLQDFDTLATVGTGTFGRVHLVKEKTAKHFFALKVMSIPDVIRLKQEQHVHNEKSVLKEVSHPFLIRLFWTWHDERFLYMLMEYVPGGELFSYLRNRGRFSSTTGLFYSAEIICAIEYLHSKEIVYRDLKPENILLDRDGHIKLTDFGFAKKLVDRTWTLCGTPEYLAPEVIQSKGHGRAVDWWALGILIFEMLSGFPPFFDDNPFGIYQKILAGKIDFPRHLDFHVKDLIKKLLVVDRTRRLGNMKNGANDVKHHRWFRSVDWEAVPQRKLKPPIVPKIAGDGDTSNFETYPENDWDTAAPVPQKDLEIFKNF
Sequence of PRKD3, construct: Full length (O94806 whole entry, looked up): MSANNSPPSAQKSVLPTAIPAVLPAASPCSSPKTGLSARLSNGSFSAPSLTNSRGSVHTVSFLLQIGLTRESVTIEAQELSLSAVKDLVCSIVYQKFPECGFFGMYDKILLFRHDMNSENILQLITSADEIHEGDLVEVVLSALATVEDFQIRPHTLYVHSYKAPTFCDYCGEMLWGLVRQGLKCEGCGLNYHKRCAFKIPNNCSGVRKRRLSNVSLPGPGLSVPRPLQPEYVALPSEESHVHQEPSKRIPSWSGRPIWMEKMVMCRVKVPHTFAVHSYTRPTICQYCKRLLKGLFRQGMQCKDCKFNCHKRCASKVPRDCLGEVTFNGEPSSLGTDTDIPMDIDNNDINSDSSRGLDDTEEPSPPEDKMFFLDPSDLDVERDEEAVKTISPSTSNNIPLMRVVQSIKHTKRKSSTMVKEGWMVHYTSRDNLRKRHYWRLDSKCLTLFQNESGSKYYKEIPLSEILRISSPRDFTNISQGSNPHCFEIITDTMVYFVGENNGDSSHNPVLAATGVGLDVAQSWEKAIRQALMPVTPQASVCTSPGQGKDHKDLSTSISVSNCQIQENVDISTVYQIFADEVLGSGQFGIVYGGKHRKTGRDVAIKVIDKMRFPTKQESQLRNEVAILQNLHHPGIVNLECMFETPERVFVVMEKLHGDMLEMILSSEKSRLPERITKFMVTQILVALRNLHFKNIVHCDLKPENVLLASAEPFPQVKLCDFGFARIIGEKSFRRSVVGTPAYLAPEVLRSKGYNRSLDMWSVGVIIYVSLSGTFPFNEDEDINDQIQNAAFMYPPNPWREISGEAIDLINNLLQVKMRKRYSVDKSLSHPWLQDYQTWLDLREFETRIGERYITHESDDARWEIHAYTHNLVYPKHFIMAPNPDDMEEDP
Sequence of SMG1, construct: Full length (Q96Q15 whole entry, looked up): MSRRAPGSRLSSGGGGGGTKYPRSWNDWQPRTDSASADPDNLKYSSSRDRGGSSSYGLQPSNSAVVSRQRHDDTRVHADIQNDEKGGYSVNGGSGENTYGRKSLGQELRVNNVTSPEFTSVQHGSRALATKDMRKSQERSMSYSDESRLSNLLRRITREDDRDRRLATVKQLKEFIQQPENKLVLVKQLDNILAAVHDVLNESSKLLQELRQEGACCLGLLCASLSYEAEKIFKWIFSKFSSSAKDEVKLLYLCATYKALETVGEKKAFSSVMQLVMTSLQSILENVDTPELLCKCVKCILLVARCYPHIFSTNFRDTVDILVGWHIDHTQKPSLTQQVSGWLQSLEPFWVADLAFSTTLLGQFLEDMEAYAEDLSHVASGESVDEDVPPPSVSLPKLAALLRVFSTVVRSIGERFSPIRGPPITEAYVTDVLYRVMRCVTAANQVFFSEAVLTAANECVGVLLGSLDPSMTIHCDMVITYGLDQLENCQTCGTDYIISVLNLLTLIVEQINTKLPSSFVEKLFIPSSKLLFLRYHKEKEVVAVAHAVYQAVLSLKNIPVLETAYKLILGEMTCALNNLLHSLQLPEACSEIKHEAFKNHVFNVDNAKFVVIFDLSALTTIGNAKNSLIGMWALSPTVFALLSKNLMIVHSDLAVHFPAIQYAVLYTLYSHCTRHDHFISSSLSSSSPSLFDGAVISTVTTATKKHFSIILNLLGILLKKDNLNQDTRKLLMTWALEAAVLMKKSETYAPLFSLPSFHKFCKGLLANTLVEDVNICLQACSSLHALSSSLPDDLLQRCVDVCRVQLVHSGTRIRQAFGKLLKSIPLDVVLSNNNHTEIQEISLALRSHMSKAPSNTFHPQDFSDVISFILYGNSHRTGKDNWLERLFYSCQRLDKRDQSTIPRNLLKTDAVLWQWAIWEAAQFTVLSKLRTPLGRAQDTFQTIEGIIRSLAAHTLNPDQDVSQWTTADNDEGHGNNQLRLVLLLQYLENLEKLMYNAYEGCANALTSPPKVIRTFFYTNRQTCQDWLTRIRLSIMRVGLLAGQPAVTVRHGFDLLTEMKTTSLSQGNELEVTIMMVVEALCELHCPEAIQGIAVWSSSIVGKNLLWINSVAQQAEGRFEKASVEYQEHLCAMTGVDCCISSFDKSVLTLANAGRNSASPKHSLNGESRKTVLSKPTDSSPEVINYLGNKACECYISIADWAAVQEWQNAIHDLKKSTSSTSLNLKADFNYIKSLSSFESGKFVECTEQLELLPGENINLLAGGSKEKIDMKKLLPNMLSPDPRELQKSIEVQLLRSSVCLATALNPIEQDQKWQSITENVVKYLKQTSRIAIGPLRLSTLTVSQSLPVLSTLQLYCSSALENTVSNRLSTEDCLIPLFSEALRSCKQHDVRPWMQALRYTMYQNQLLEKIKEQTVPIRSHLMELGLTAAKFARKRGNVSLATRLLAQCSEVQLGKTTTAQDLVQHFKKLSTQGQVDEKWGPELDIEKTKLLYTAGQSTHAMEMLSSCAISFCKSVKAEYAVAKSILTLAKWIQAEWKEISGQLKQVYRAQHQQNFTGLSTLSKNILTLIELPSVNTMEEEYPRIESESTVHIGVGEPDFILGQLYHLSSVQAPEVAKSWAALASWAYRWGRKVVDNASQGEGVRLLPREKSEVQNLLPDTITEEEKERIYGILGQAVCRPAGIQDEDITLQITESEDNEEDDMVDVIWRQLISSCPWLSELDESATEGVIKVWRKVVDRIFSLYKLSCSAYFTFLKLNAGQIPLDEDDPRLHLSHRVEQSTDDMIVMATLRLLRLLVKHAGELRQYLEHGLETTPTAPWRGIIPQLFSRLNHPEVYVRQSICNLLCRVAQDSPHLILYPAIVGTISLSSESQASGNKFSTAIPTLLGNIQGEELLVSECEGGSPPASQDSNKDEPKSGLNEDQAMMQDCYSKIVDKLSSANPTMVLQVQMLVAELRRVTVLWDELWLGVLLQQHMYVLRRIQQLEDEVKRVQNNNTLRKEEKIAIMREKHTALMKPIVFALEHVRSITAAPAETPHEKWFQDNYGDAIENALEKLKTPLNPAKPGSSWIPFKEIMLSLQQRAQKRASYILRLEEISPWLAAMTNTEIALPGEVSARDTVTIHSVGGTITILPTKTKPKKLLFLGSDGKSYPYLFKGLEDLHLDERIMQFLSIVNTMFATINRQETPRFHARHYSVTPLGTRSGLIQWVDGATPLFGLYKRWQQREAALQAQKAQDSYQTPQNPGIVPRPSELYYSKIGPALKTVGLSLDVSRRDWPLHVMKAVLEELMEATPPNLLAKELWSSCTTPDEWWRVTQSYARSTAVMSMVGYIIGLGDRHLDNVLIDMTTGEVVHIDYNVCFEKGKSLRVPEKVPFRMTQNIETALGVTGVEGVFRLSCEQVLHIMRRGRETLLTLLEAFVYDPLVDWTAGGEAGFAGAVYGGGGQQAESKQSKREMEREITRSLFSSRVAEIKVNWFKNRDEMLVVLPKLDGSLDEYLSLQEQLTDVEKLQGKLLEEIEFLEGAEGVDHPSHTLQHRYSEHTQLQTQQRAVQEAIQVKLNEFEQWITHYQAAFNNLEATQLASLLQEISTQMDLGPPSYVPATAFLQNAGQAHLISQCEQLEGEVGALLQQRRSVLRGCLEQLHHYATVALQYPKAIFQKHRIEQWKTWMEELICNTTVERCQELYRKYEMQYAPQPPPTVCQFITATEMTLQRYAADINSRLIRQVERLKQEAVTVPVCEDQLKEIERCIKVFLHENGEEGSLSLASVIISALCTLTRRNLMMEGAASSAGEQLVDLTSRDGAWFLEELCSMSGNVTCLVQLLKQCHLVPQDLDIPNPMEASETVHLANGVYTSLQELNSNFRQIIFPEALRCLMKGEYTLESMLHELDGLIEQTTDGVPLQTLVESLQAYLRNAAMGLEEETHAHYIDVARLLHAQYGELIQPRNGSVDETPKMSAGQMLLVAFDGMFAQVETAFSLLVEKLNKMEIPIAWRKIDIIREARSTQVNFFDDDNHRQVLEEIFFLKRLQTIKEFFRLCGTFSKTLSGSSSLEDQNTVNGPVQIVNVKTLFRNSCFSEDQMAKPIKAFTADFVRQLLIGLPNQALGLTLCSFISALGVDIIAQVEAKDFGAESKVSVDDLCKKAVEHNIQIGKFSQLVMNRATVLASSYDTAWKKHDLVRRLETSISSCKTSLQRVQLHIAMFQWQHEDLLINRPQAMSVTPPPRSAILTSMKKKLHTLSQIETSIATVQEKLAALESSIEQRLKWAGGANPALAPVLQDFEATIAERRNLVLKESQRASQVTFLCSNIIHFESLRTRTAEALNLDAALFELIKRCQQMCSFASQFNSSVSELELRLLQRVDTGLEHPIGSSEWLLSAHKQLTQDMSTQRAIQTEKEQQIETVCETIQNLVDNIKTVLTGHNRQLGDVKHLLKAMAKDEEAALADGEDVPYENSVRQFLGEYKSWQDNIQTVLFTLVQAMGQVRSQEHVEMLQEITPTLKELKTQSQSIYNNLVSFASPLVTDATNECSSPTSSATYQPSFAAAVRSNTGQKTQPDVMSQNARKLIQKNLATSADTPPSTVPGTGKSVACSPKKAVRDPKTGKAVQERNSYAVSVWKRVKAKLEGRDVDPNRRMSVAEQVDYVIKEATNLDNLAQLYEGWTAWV

PRKD3, construct: Full length (from UniProt O94806)
relative phosphorylation
Details | at +1 | at +2 | at +3 | at +4 | at -1 | at -2 | at -3 | at -4 | at -5
A fixed | 0.865 | 1.03 | 0.829 | 0.85 | 0.845 | 1.21 | 1.03 | 1.31 | 0.989
D fixed | 0.493 | 0.636 | 0.664 | 0.709 | 0.598 | 0.341 | 0.231 | 0.402 | 0.344
E fixed | 0.444 | 0.536 | 0.561 | 0.66 | 0.486 | 0.418 | 0.272 | 0.711 | 0.332
F fixed | 1.09 | 1.07 | 1 | 1.09 | 0.812 | 0.56 | 0.417 | 0.797 | 0.895
G fixed | 0.727 | 1.06 | 1.17 | 1.21 | 0.6 | 0.453 | 0.375 | 1.21 | 0.563
H fixed | 1.33 | 1.36 | 1.22 | 1.29 | 1.15 | 0.839 | 0.572 | 1.14 | 0.525
I fixed | 1.02 | 0.628 | 0.744 | 0.795 | 0.526 | 0.496 | 0.321 | 0.678 | 1.11
K fixed | 1.31 | 1.27 | 1.21 | 1.22 | 2.07 | 2.85 | 2.2 | 1.98 | 0.895
L fixed | 1.06 | 0.824 | 0.957 | 0.908 | 1.18 | 0.867 | 0.359 | 0.809 | 3.37
M fixed | 1.16 | 0.929 | 0.883 | 0.854 | 1.03 | 1.43 | 0.444 | 1.15 | 0.774
N fixed | 1.48 | 1.26 | 1.02 | 1.1 | 1.38 | 0.795 | 0.418 | 0.649 | 0.483
P fixed | 0.453 | 1.24 | 1.72 | 1.31 | 1.1 | 0.374 | 0.478 | 0.476 | 1.08
Q fixed | 1.08 | 0.877 | 0.984 | 1.1 | 0.889 | 1.83 | 0.588 | 1.16 | 0.866
R fixed | 1.28 | 1.38 | 1.05 | 0.774 | 1.79 | 2.58 | 8.02 | 2.12 | 1.8
V fixed | 0.988 | 0.718 | 0.812 | 0.774 | 0.751 | 0.778 | 0.333 | 0.85 | 1.61
W fixed | 0.885 | 1.05 | 0.991 | 1.31 | 0.708 | 0.526 | 0.436 | 0.638 | 0.544
Y fixed | 1.35 | 1.12 | 1.19 | 1.04 | 1.08 | 0.657 | 0.51 | 0.934 | 0.827
pThr fixed | 0.532 | 0.513 | 0.622 | 0.51 | 0.321 | 0.349 | 0.266 | 0.508 | 0.377
pTyr fixed | 0.589 | 0.609 | 0.669 | 0.608 | 0.662 | 0.409 | 0.495 | 0.511 | 0.572

PRKX, construct: Full length (from UniProt P51817)
relative phosphorylation
Details | at +1 | at +2 | at +3 | at +4 | at -1 | at -2 | at -3 | at -4 | at -5
A fixed | 0.71 | 1.3 | 0.688 | 0.785 | 0.651 | 0.289 | 0.299 | 1.03 | 1.08
D fixed | 0.862 | 2.53 | 1.6 | 2.09 | 0.698 | 0.224 | 0.2 | 0.876 | 1.11
E fixed | 0.814 | 1.04 | 1.32 | 1.61 | 0.424 | 0.2 | 0.208 | 0.881 | 0.985
F fixed | 0.849 | 0.505 | 0.697 | 0.599 | 0.425 | 0.212 | 0.128 | 0.515 | 0.596
G fixed | 1.06 | 1.27 | 1.49 | 1.08 | 1.29 | 0.382 | 0.477 | 1.1 | 1.4
H fixed | 0.919 | 1.16 | 1.31 | 1.04 | 1.18 | 0.662 | 1.14 | 1.09 | 1.26
I fixed | 0.872 | 0.411 | 0.344 | 0.522 | 0.184 | 0.143 | 0.111 | 0.357 | 0.528
K fixed | 1.55 | 0.713 | 1.38 | 1.12 | 2.79 | 4.76 | 3.29 | 2.53 | 2.14
L fixed | 0.859 | 0.47 | 0.627 | 0.572 | 0.399 | 0.185 | 0.112 | 0.451 | 0.507
M fixed | 0.884 | 0.504 | 0.462 | 0.643 | 0.534 | 0.176 | 0.134 | 0.575 | 0.651
N fixed | 1.41 | 1.47 | 1.52 | 1.48 | 1.7 | 0.343 | 0.383 | 0.914 | 1.11
P fixed | 0.584 | 1.84 | 1.24 | 1.3 | 1.55 | 0.395 | 0.797 | 1.22 | 0.811
Q fixed | 1.47 | 1.24 | 1.36 | 1.23 | 1.41 | 0.483 | 0.444 | 1.18 | 0.807
R fixed | 1.57 | 0.881 | 1.13 | 1.06 | 2.37 | 7.88 | 8.71 | 2.58 | 2.12
V fixed | 0.801 | 0.498 | 0.413 | 0.623 | 0.217 | 0.143 | 0.112 | 0.412 | 0.454
W fixed | 1.02 | 0.624 | 0.752 | 0.637 | 0.457 | 0.295 | 0.246 | 0.686 | 0.731
Y fixed | 0.766 | 0.548 | 0.669 | 0.608 | 0.711 | 0.234 | 0.204 | 0.613 | 0.71
pThr fixed | 1.32 | 1.05 | 1.35 | 2.62 | 0.462 | 0.431 | 0.421 | 0.921 | 1.04
pTyr fixed | 1.54 | 1.38 | 1.3 | 1.55 | 0.999 | 0.374 | 0.345 | 0.864 | 0.882

ROCK1, construct: aa1-535 (from UniProt Q13464)
relative phosphorylation
Details | at +1 | at +2 | at +3 | at +4 | at -1 | at -2 | at -3 | at -4 | at -5
A fixed | 0.632 | 0.883 | 1.01 | 0.721 | 0.745 | 0.528 | 0.549 | 0.906 | 0.953
D fixed | 0.366 | 0.412 | 0.54 | 0.674 | 0.384 | 0.203 | 0.219 | 0.44 | 0.454
E fixed | 0.358 | 0.39 | 0.488 | 0.656 | 0.303 | 0.188 | 0.231 | 0.525 | 0.462
F fixed | 0.758 | 0.678 | 1.11 | 1.13 | 0.579 | 0.42 | 0.343 | 0.653 | 0.703
G fixed | 0.706 | 0.773 | 1.42 | 1.06 | 1.03 | 0.534 | 0.577 | 1.1 | 1.06
H fixed | 0.963 | 1.13 | 1.23 | 1.15 | 1.23 | 1.12 | 1.35 | 1.15 | 1.19
I fixed | 1.43 | 1.13 | 0.81 | 0.866 | 0.52 | 0.268 | 0.28 | 0.532 | 0.603
K fixed | 1.1 | 1.6 | 1.08 | 1.35 | 2.43 | 2.69 | 2.63 | 2.22 | 2.44
L fixed | 1.57 | 1.2 | 1.01 | 1.06 | 1.02 | 0.359 | 0.316 | 0.571 | 0.495
M fixed | 1.64 | 0.968 | 0.913 | 0.999 | 1.06 | 0.448 | 0.352 | 0.732 | 0.586
N fixed | 1.38 | 0.854 | 0.988 | 1.15 | 1.14 | 0.906 | 0.575 | 0.89 | 0.878
P fixed | 0.224 | 0.727 | 1.15 | 0.994 | 0.816 | 0.43 | 0.412 | 0.891 | 0.931
Q fixed | 1.33 | 0.866 | 0.897 | 1.12 | 1.11 | 0.842 | 0.703 | 0.88 | 0.83
R fixed | 2.22 | 2.27 | 1.34 | 1.37 | 2.27 | 6.35 | 7.13 | 3.19 | 3.2
V fixed | 0.969 | 1.26 | 0.818 | 0.709 | 0.648 | 0.317 | 0.293 | 0.657 | 0.672
W fixed | 0.704 | 0.808 | 1.16 | 1.07 | 0.673 | 0.774 | 0.562 | 0.885 | 0.759
Y fixed | 0.648 | 1.05 | 1.03 | 0.927 | 1.05 | 0.623 | 0.485 | 0.777 | 0.778
pThr fixed | 0.432 | 0.607 | 0.507 | 0.658 | 0.315 | 0.378 | 0.392 | 0.712 | 0.745
pTyr fixed | 0.477 | 0.576 | 0.731 | 0.674 | 0.525 | 0.329 | 0.407 | 0.625 | 0.817

SMG1, construct: Full length (from UniProt Q96Q15)
relative phosphorylation
Details | at +1 | at +2 | at +3 | at +4 | at -1 | at -2 | at -3 | at -4 | at -5
A fixed | 0.603 | 0.979 | 1.02 | 0.957 | 0.855 | 1.26 | 1.21 | 1.23 | 1.18
D fixed | 0.453 | 1.12 | 1.33 | 0.91 | 0.348 | 0.521 | 0.669 | 0.674 | 0.649
E fixed | 0.336 | 0.964 | 1.15 | 0.799 | 0.298 | 0.645 | 0.836 | 0.829 | 0.693
F fixed | 0.533 | 0.966 | 1.12 | 1.28 | 1.35 | 1.25 | 1.44 | 1.3 | 1.39
G fixed | 0.603 | 0.924 | 0.974 | 0.933 | 0.646 | 1.29 | 1.03 | 1.26 | 1.28
H fixed | 0.522 | 0.991 | 0.858 | 1.06 | 0.939 | 1.04 | 0.972 | 1.02 | 1.07
I fixed | 0.539 | 0.841 | 0.899 | 0.883 | 0.662 | 1.08 | 0.874 | 0.926 | 0.924
K fixed | 0.581 | 0.711 | 0.62 | 0.779 | 0.725 | 0.698 | 0.604 | 0.614 | 0.67
L fixed | 0.739 | 0.889 | 0.853 | 0.943 | 4.37 | 1.2 | 0.965 | 1.01 | 0.958
M fixed | 0.55 | 1.03 | 1.07 | 1 | 2.27 | 1.26 | 1.33 | 1.08 | 1.03
N fixed | 0.841 | 0.832 | 0.854 | 0.806 | 0.722 | 0.82 | 0.766 | 0.73 | 0.701
P fixed | 0.567 | 1.39 | 0.996 | 1.12 | 0.558 | 0.807 | 0.817 | 0.855 | 1
Q fixed | 7.53 | 1.13 | 0.832 | 0.867 | 0.822 | 0.877 | 0.83 | 0.766 | 0.729
R fixed | 0.875 | 0.818 | 0.931 | 0.85 | 0.615 | 0.751 | 0.687 | 0.677 | 0.781
V fixed | 0.567 | 0.946 | 0.913 | 0.881 | 0.474 | 0.996 | 0.912 | 0.93 | 0.964
W fixed | 0.545 | 1.26 | 1.31 | 1.53 | 0.53 | 1.08 | 1.36 | 1.55 | 1.6
Y fixed | 0.613 | 1.2 | 1.28 | 1.39 | 0.823 | 1.42 | 1.7 | 1.55 | 1.38
pThr fixed | 0.386 | 1.04 | 1.82 | 1.03 | 0.365 | 0.661 | 0.999 | 1.11 | 1.1
pTyr fixed | 0.416 | 0.704 | 1.06 | 1.41 | 0.539 | 1.27 | 1.71 | 1.65 | 1.47
